The values that follow come from PMC9645763.

Data set [1] deals with PRC2-5m SUZ12 S583A (HEK293T) (human). The data set can be described thus: EMSA. Conditions: EMSA: 0.5 nM nucleosome, PRC2-5m 2-fold dilutions from 2 uM, 10 mM Tris 8.0, 50 mM NaCl, 10% glycerol, on ice 30 min; 4% native gel, 1x TGE, SYBR Gold. For orientation: Mobility shift assays separate free from complexed probe on a gel.
Data set [2] concerns the target mononucleosome (Xenopus laevis histone octamer on 147-bp 601 DNA) (Xenopus laevis). The data set can be described thus: native gel or EMSA; 0.5 nM nucleosomes with PRC2-5m (2-fold serial dilution from 2 μM), 10 mM Tris 8.0, 50 mM NaCl, 10% glycerol, on ice 30 min; 4% native polyacrylamide gel, SYBR Gold.

In the case of 601 mononucleosome, 147 bp, the binding signal (fold higher Kd than WT) in data set [1] worked out at 2.
As for “PRC2-5m (EZH2–EED–SUZ12–RBBP4–AEBP2) containing the S583A mutation of SUZ12, expressed in HEK293T cells (from UniProt Q15910 1-746; O75530 1-441; Q15022 1-739; Q09028 1-425; Q6ZN18 1-295) (complex)”, the fold reduction of the nucleosome binding affinity against the WT complex in data set [2] was found to be 2 fold.
